From the supplement of paper PMC7125110
± gives the standard error. Fewer inactive variants are shown than the library holds.

B1: glmS ribozyme (parent)
chain: AUAAAAGCGCCAGAACUACAGAAAUGUAGUUGACGAGGAGGAGGUUUAUCGAAUUUUCGGCGGAUGCCUCCAAA

Key:
Details in all cases: with glucosamine-6-phosphate
glucosamine-6-phosphate [1] = variants of: B1; experiment: self-cleavage kobs at 40 uM GlcN6P; higher = faster cleavage; RNA array
Summary of the method: (§1)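 Weighted Michaelis–Menten fits across concentrations supplied kcat and KM, based on kobs from one- or two-exponential decay fits to normalised per-tile medians. The data came from barcoded ribozyme variants transcribed in situ by E. coli RNA polymerase on sequenced MiSeq chips and tracked at 37 °C by a hybridised Cy3 probe. Glucosamine-6-phosphate (40 μM to 10 mM) in HEPES/KCl/Mg(OAc)2 buffer was flowed in.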

glucosamine-6-phosphate [2] = variants of: B1; experiment: self-cleavage kobs at 10000 uM GlcN6P; higher = faster cleavage; RNA array
Summary of the method: as §1

glucosamine-6-phosphate [3] = variants of: B1; experiment: self-cleavage kobs at 640 uM GlcN6P; higher = faster cleavage; RNA array
Summary of the method: as §1

glucosamine-6-phosphate [4] = variants of: B1; experiment: self-cleavage kobs at 2500 uM GlcN6P; higher = faster cleavage; RNA array
Summary of the method: as §1

glucosamine-6-phosphate [5] = variants of: B1; experiment: self-cleavage kobs at 160 uM GlcN6P; higher = faster cleavage; RNA array
Summary of the method: as §1

Variant	self-cleavage kobs at 40 uM GlcN6P (glucosamine-6-phosphate [1]) [s⁻¹]	self-cleavage kobs at 10000 uM GlcN6P (glucosamine-6-phosphate [2]) [s⁻¹]	self-cleavage kobs at 640 uM GlcN6P (glucosamine-6-phosphate [3]) [s⁻¹]	self-cleavage kobs at 2500 uM GlcN6P (glucosamine-6-phosphate [4]) [s⁻¹]	self-cleavage kobs at 160 uM GlcN6P (glucosamine-6-phosphate [5]) [s⁻¹]
AUAAAAGCGCCAGAACUACAGAAAUGUAGUUGACGAGGACGAGGUUUAUCGAAUUUUGGGCGGAUGUCUCCAAA [G40C C58G C67U]	< 1e-05				
AUAAAAGCGCCAGAACUACAGAAAUGUAGUUGACGAGGGGGAGGGUUGUCGAAUUUUCGGCGGAUGCCUCCAAA [A39G U45G A48G]	< 1e-05	6.43e-05 ± 1.9e-05			
AUAAAAGCGCCAGAACUACAGAAAUGUAGUUGACGAGGAAGAAGUUUAUCGAAUUUUCGGCGGAUGCCUCCAAA [G40A G43A]	< 1e-05	< 1e-05	< 1e-05	< 1e-05	
AUAAAAGCGCCAGAACUACAGAAAUGUAGUUGACGAGGAAGAUGUUUAUCGAAUUUUCGGCGGAUGCCUCCAAA [G40A G43U]	< 1e-05	< 1e-05	< 1e-05		< 1e-05
AUAAAAGCGCCAGAACUACAGAAAUGUAGUUGACGAGGACGAGGUUUCUCGUAUUUUCGGCGGAUGCCUCCAAA [G40C A48C A52U]	< 1e-05		< 1e-05	< 1e-05	
AUAAAAGCGCCAGAACUACAGAAAUGUAGUUGACGAGGUGGGGGUUUAUCGAAUUUUCGGCGGAUGUCUCCAAA [A39U A42G C67U]	0.000231 ± 6.2e-05	0.0241 ± 0.0085		0.00297 ± 0.00075	0.000536 ± 0.00015
AUAAAAGCGCCAGAACUACAGAAAUGUAGUUGACGAGGACGAGGUUUAUCGAAUUUUCGGCGGAUGCUUCCAAA [G40C C68U]	< 1e-05	1.72e-05 ± 7.9e-06			
AUAAAAGCGCCAGAACUACAGAAAUGUAGUUGACGAGGACGACGUUUAUCGAAUUUUCGGCGGAUGCCUCCAAA [G40C G43C]	< 1e-05	< 1e-05		< 1e-05	< 1e-05
AUAAAAGCGCCAGAACUACAGAAAUGUAGUUGACGAGGACGAAGUUUAUCGAAUUUUCGGCGGAUGCCUCCAAA [G40C G43A]	< 1e-05	< 1e-05			
AUAAAAGCGCCAGAACUACAGAAAUGUAGUUGACGAGGAAGAGGUUGAUCGAAUUUUCGGCGGAUGCCUCCAAA [G40A U47G]	8.03e-05 ± 1.9e-05	0.00267 ± 0.0004	0.000547 ± 0.00011	0.00069 ± 0.00018	0.000122 ± 2.3e-05
AUAAAAGCGCCAGAACUACAGAAAUGUAGUUGACGAGGUGGAGGUUUAUCGAAGUUUUGGCGGAUGCCUCCAAA [A39U U54G C58U]	< 1e-05				
AUAAAAGCGCCAGAACUACAGAAAUGUAGUUGACGAGGACCAGGUUUAUCGAAUUUUCGGCGUAUGCCUCCAAA [G40C G41C G63U]	< 1e-05				
AUAAAAGCGCCAGAACUACAGAAAUGUAGUUGACGAGGACGCGGUUUAUCGAAUUUUCGGCGGAUGCCUCCAAA [G40C A42C]	< 1e-05	< 1e-05	< 1e-05	< 1e-05	< 1e-05
AUAAAAGCGCCAGAACUACAGAAAUGUAGUUGACGAGGUGGAGGAUUAUCGAAUUUUCGGCGGAUGCCUCCAAA [A39U U45A]	0.000759 ± 9.8e-05	0.0807 ± 0.02	0.0067 ± 0.0015	0.0135 ± 0.0033	0.00209 ± 0.00053
AUAAAAGCGCCAGAACUACAGAAAUGUAGUUGACGAGGAAGAGGUUCAUCGAAUUUUCGGCAGCUGCCUUCAAA [G40A U47C G62A A64C C70U]	< 1e-05	< 1e-05		< 1e-05	
AUAAAAGCGCCAGAACUACAGAAAUGUAGUUGACGAGGUGGAGGUUUAUCGAAUUUUCGGCGGAUGCCCCCAAA [A39U U69C]	0.000261 ± 7.1e-05	0.0107 ± 0.0039		0.0075 ± 0.0032	
AUAAAAGCGCCAGAACUACAGAAAUGUAGUUGACGAGGAAGAGAUUUAUCGAAUUUUCGGCGGAUGCCUUCAAA [G40A G44A C70U]	< 1e-05	< 1e-05			
AUAAAAGCGCCAGAACUACAGAAAUGUAGUUGACGAGGACGAGGUUUAUCGAAUUUUCGGAGGAUGCCUCCAAA [G40C C61A]	< 1e-05			< 1e-05	
AUAAAAGCGCCAGAACUACAGAAAUGUAGUUGACGAGGGGGAGGUUUAUCGAAUUUUCGGCGUAUACCUCCAAA [A39G G63U G66A]	< 1e-05	< 1e-05	< 1e-05	< 1e-05	
AUAAAAGCGCCAGAACUACAGAAAUGUAGUUGACGAGGUGGCGGUUUAUCGAACUUUCGGCGGACGCCUCCAAA [A39U A42C U54C U65C]	< 1e-05		< 1e-05	< 1e-05	
AUAAAAGCGCCAGAACUACAGAAAUGUAGUUGACGAGGUGGAGGUUUAUCGAAUUUUCGGCGGACGCCUCCAAA [A39U U65C]	8.42e-05 ± 1.7e-05		0.00114 ± 0.00015	0.00149 ± 0.00024	0.000124 ± 2.7e-05
AUAAAAGCGCCAGAACUACAGAAAUGUAGUUGACGAGGGGGAGGUUUAUCGAAUUGUCGGCGGAUGCCUCCAAA [A39G U56G]	0.00055 ± 0.00012	0.0224 ± 0.0047			
AUAAAAGCGCCAGAACUACAGAAAUGUAGUUGACGAGGAACAGGUUUAUCGAAUUUUCGGGGGAUGCCUCCAAA [G40A G41C C61G]	< 1e-05		< 1e-05	< 1e-05	
AUAAAAGCGCCAGAACUACAGAAAUGUAGUUGACGAGGUGGAGGUUUAUCGAAUUAUCGGCGGAUGCCUCCAAA [A39U U56A]	0.000199 ± 3.1e-05	0.00963 ± 0.00089		0.00215 ± 0.00066	0.000238 ± 8.2e-05
AUAAAAGCGCCAGAACUACAGAAAUGUAGUUGACGAGGUGGAGGUUUAUCGAAUUUUCGGCGGAUGCUUCUAAA [A39U C68U C71U]	0.000103 ± 3e-05				
